Data reported in article PMC3502752.

Columns and labels:
Settings in all cases: ELISA: 20 mM Tris-HCl pH 7.5, 100 mM NaCl, room temperature, 1 h (washes with 0.02% Tween-20); SPR conditions not in the material
[1] = system: BV04-01 scFv (SCA04-01) (mouse (lupus-prone)); experiment: ELISA
[2] = system: BV04-01 scFv VH A23P (mouse (lupus-prone)); experiment: ELISA
MRL-4 scFv (mouse) [3] = experiment: ELISA
[4] = system: MRL-4 scFv VH P23A (mouse); experiment: ELISA
[5] = system: BV04-01 scFv (SCA04-01) (mouse (lupus-prone)); experiment: SPR
[6] = system: BV04-01 scFv VH A23P (mouse (lupus-prone)); experiment: SPR
MRL-4 scFv (mouse) [7] = experiment: SPR
[8] = system: MRL-4 scFv VH P23A (mouse); experiment: SPR

| Substance | binding signal [1] [%] | binding signal (% of BV04-01 wild type) [2] | binding signal (MRL-4 scFv (mouse) [3]) [%] | binding signal (% of MRL-4 wild type) [4] | Kd [5] [nM] | Kd [6] [nM] | Kd (MRL-4 scFv (mouse) [7]) [nM] | Kd [8] [nM] |
| --- | --- | --- | --- | --- | --- | --- | --- | --- |
| 254-bp PCR fragment (ELISA) | 100 | 1.2 | 100 | 4.6 | – | – | – | – |
| double-stranded DNA fragments (SPR ligand) | – | – | – | – | 1.8 | 290 | 17 | 8500 |
